# Data from paper doi:10.1101/2020.04.29.065136.
# What was measured:
# [1] = biological target: SNAP25 (mouse (endogenous in mouse brain synaptosomes)) (UniProt P60879); experiment: affinity purification with mass spectrometry
# [2] = biological target: SNAP25 (mouse (endogenous in mouse brain synaptosomes)) (UniProt P60879); experiment: co-IP
# UniProt P60879, sequence (P60879 whole entry): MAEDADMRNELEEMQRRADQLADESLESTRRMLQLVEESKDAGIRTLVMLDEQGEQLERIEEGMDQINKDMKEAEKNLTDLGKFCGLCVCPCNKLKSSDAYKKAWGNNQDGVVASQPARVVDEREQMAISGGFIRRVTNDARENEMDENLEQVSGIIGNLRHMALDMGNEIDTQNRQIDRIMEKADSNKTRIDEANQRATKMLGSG
Substance,fold increase of the interaction upon epi stimulation against the basal state [1] [fold],amount pulled down with SNAP25 per half brain [2] [µg]
Gβ1 (from UniProt P62874 1-340) (natural protein),10,–
Gβγ (from UniProt P62874 1-340; P63216 1-75) (complex),–,1
